Results as given in article PMC10833561.
Where two headings read alike, the source gives them in different places.

Substance | expression_or_secretion (N-glycosylation at N171) | other (N-glycosylation at N171) | expression_or_secretion (N-glycosylation at N202) | other (N-glycosylation at N202)
SIVmac239 Env (envelope glycoprotein, gp120 V2 apex): T173I (in SIVmac239 K180S) | no change | abolishes | – | –
SIVmac239 Env (envelope glycoprotein, gp120): S204G (in SIVmac239 K180S) | – | – | no change | decreases
